Measured values from patent EP1516629B1 (Genentech, Inc., dated 2013).

Assays:
human CD11a [1] = molecular target: T1, human CD11a (human, UniProt P20701 26-1170); experiment: FACScan, Jurkat cells
T1 construct: whole, on cells; On cells it stands paired with CD18 as LFA-1; also called alpha subunit of LFA-1; LFA-1 (CD11a/CD18)
Target sequence in this assay (P20701 26-1170): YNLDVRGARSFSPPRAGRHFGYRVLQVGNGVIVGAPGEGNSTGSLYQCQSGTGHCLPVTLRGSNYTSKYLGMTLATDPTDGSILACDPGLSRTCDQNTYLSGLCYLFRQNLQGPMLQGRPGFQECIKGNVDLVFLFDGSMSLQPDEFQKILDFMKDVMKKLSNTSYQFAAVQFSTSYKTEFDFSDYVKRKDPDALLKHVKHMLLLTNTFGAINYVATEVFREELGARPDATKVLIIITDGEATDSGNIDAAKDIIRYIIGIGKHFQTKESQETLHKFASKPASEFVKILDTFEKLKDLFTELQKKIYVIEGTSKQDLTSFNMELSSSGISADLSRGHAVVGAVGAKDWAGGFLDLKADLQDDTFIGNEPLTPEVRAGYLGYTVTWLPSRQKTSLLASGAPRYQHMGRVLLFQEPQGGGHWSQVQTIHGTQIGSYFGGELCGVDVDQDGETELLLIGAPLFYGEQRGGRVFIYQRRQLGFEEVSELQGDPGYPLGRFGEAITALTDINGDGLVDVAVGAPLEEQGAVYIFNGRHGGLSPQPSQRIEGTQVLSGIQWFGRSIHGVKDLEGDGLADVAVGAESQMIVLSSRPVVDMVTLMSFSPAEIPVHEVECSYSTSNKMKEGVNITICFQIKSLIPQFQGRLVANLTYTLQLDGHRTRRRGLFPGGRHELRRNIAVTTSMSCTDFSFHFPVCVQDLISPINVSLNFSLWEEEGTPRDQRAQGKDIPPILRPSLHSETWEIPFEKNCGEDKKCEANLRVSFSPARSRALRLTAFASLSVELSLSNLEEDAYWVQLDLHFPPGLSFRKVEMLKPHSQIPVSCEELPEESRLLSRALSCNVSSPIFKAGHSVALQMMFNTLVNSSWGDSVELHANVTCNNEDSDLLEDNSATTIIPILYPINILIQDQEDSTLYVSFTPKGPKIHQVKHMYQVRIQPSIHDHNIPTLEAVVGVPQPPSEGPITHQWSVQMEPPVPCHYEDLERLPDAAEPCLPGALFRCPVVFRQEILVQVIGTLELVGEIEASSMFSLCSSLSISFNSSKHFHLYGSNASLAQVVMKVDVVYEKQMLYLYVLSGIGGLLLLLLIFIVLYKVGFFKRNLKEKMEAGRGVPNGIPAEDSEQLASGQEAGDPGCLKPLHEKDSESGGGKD

human CD11a [2] = molecular target: T1, human CD11a; experiment: saturation binding of 125I-antibody to human mononuclear cells, Kd(app)
human CD11a [3] = molecular target: T1, human CD11a; experiment: FACScan, Jurkat cells; remark: listed apart in the source
rhesus CD11a [4] = molecular target: T2, rhesus CD11a (rhesus, UniProt H9Z8N3 26-1169); experiment: cell binding EC50, rhesus against human CD11a
T2 construct: whole, on cells; also called rhCD11a
T2 sequence: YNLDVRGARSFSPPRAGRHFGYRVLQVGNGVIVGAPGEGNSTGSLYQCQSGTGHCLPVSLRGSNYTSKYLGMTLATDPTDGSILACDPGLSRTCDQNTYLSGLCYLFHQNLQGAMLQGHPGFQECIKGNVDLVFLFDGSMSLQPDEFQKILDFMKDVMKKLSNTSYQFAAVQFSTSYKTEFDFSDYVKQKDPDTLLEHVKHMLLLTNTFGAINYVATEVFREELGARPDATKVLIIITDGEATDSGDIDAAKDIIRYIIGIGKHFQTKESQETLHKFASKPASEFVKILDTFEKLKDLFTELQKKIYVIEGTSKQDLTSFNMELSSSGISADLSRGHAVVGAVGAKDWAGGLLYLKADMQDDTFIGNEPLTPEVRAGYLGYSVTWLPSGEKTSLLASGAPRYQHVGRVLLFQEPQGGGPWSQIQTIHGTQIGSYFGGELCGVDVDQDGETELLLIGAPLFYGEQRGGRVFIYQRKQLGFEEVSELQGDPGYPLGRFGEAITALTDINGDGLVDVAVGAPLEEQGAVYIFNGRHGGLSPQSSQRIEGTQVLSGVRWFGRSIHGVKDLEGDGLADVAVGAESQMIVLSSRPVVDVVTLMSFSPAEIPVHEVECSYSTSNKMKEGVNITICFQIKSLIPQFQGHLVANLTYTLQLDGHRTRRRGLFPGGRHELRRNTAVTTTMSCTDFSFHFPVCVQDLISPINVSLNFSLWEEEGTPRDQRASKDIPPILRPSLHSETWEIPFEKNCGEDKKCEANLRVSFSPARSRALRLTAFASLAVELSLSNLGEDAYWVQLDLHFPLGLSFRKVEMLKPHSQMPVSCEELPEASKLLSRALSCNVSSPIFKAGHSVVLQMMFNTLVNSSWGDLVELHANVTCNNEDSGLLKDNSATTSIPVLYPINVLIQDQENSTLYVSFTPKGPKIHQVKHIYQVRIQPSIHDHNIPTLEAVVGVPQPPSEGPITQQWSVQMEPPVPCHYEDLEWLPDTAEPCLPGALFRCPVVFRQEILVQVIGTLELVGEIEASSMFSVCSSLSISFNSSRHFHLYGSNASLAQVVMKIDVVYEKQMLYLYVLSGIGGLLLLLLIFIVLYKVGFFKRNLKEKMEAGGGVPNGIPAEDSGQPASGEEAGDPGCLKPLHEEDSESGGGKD

human CD11a [5] = molecular target: T1, human CD11a; experiment: cell-based or functional assay
human CD11a [6] = molecular target: T1, human CD11a; experiment: saturation binding, human lymphocytes, donor 1, Kd(app)
human CD11a [7] = molecular target: T1, human CD11a; experiment: saturation binding, human lymphocytes, donor 2, Kd(app)
human CD11a [8] = molecular target: T1, human CD11a; experiment: FACScan, Jurkat cells; remark: listed apart in the source
rhesus CD11a [9] = molecular target: T2, rhesus CD11a; experiment: binding to rhesus peripheral blood lymphocytes
human CD11a [10] = molecular target: T1, human CD11a; experiment: cell-based or functional assay; remark: listed apart in the source
rhesus CD11a [11] = molecular target: T2, rhesus CD11a; experiment: binding to rhesus peripheral blood lymphocytes; remark: listed apart in the source

B1: humanized MHM24 IgG1 (HuIgG1) (antibody, V domains shown)
VH: EVQLVESGGGLVQPGGSLRLSCAASGYSFTGHWMNWVRQAPGKGLEWVGMIHPSDSETRYNQKFKDRFTISVDKSKNTLYLQMNSLRAEDTAVYYCARGIYFYGTTYFDYWGQGTLVTVSS
VL: DIQMTQSPSSLSASVGDRVTITCRASKTISKYLAWYQQKPGKAPKLLIYSGSTLQSGVPSRFSGSGSGTDFTLTISSLQPEDFATYYCQQHNEYPLTFGQGTKVEIKR
notes: F(ab)-8 VL and VH fused to human constant light and IgG1 heavy chains; also called HulgG1; huMHM24
Human CD11a [1]
  EC50 F(ab)/EC50 F(ab)-2: 0.004 ratio
Human CD11a [2]
  Kd: 0.15 nM
Human CD11a [3]
  EC50: 0.042 nM
Rhesus CD11a [4]
  fold reduction in binding against human CD11a: ~1000 fold
Human CD11a [5]
  IC50, human mixed lymphocyte response assay: 0.38 nM
Human CD11a [6]
  Kd: 0.11 nM
Human CD11a [7]
  Kd: 0.18 nM
Human CD11a [8]
  Var.EC50/HuIgG1 EC50: 1 ratio
Rhesus CD11a [9]
  Var.EC50/HuIgG1 EC50: 1 ratio
Human CD11a [10]
  IC50, blocking of cell adhesion, Jurkat:HuK: 0.13 nM
Rhesus CD11a [11]
  EC50: 45.6 nM
